# Data taken from patent publication US20170275666A1, “Methods for Preparing Rebaudioside I and Uses” (The Coca-Cola Company, priority 2014, published 2017).
# Numbering of substitutions follows the chain as printed.
# B1: UGT76G1var8: UGT76G1 variant, mutations E224A_Q266S_Q342E (protein, UniProt Q6VAB4 1-458, looked up, variant E224A Q266S Q342E)
# UDP-glycosyltransferase 76G1: MENKTETTVRRRRRIILFPVPFQGHINPILQLANVLYSKGFSITIFHTNFNKPKTSNYPHFTFRFILDNDPQDERISNLPTHGPLAGMRIPIINEHGADELRRELELLMLASEEDEEVSCLITDALWYFAQSVADSLNLRRLVLMTSSLFNFHAHVSLPQFDELGYLDPDDKTRLEEQASGFPMLKVKDIKSAYSNWQILKEILGKMIKQTKASSGVIWNSFKALEESELETVIREIPAPSFLIPLPKHLTASSSSLLDHDRTVFSWLDQQPPSSVLYVSFGSTSEVDEKDFLEIARGLVDSKQSFLWVVRPGFVKGSTWVEPLPDGFLGERGRIVKWVPQEEVLAHGAIGAFWTHSGWNSTLESVCEGVPMIFSDFGLDQPLNARYMSDVLKVGVYLENGWERGEIANAIRRVMVDEEGEYIRQNARVLKQKADVSLMKGGSSYESLESLVSYISSL
# B2: UGT76G1var27: UGT76G1 variant, mutations A239I_L379A_V394I (protein, UniProt Q6VAB4 1-458, looked up, variant A239I L379A V394I)
# UDP-glycosyltransferase 76G1: B1 UDP-glycosyltransferase 76G1 with A224E, A239I, S266Q, E342Q, L379A, V394I
# B3: UGT76G1var28: UGT76G1 variant, mutations L243A_S274G_P382M (protein, UniProt Q6VAB4 1-458, looked up, variant L243A S274G P382M)
# UDP-glycosyltransferase 76G1: B1 UDP-glycosyltransferase 76G1 with A224E, L243A, S266Q, S274G, E342Q, P382M
# B4: UGT76G1var12: UGT76G1 variant, mutations L243P_K303G_A352G (protein, UniProt Q6VAB4 1-458, looked up, variant L243P K303G A352G)
# UDP-glycosyltransferase 76G1: B1 UDP-glycosyltransferase 76G1 with A224E, L243P, S266Q, K303G, E342Q, A352G
# B5: UGT76G1var9: UGT76G1 variant, mutations E231A_D301N_G348P (protein, UniProt Q6VAB4 1-458, looked up, variant E231A D301N G348P)
# UDP-glycosyltransferase 76G1: B1 UDP-glycosyltransferase 76G1 with A224E, E231A, S266Q, D301N, E342Q, G348P
# B6: UGT76G1var10: UGT76G1 variant, mutations A33G_L246F_Q342E (protein, UniProt Q6VAB4 1-458, looked up, variant A33G L246F Q342E)
# UDP-glycosyltransferase 76G1: B1 UDP-glycosyltransferase 76G1 with A33G, A224E, L246F, S266Q
# B7: UGT76G1var21: UGT76G1 variant, mutations A239V_V300A_K303G (protein, UniProt Q6VAB4 1-458, looked up, variant A239V V300A K303G)
# UDP-glycosyltransferase 76G1: B1 UDP-glycosyltransferase 76G1 with A224E, A239V, S266Q, V300A, K303G, E342Q
# B8: UGT76G1var13: UGT76G1 variant, mutations L243A_S357C_A385T (protein, UniProt Q6VAB4 1-458, looked up, variant L243A S357C A385T)
# UDP-glycosyltransferase 76G1: B1 UDP-glycosyltransferase 76G1 with A224E, L243A, S266Q, E342Q, S357C, A385T
# B9: UGT76G1var15: UGT76G1 variant, mutations F41L_L246F_Q425E (protein, UniProt Q6VAB4 1-458, looked up, variant F41L L246F Q425E)
# UDP-glycosyltransferase 76G1: B1 UDP-glycosyltransferase 76G1 with F41L, A224E, L246F, S266Q, E342Q, Q425E
# B10: UGT76G1var30: UGT76G1 variant, mutations I43V_E224A_S241I (protein, UniProt Q6VAB4 1-458, looked up, variant I43V E224A S241I)
# UDP-glycosyltransferase 76G1: B1 UDP-glycosyltransferase 76G1 with I43V, S241I, S266Q, E342Q
# B11: UGT76G1var32: UGT76G1 variant, mutations A239V_L243A_S375M (protein, UniProt Q6VAB4 1-458, looked up, variant A239V L243A S375M)
# UDP-glycosyltransferase 76G1: B1 UDP-glycosyltransferase 76G1 with A224E, A239V, L243A, S266Q, E342Q, S375M
# B12: UGT76G1var22: UGT76G1 variant, mutations E231A_V310I_R334K (protein, UniProt Q6VAB4 1-458, looked up, variant E231A V310I R334K)
# UDP-glycosyltransferase 76G1: B1 UDP-glycosyltransferase 76G1 with A224E, E231A, S266Q, V310I, R334K, E342Q
# B13: UGT76G1var25: UGT76G1 variant, mutations T284L_Q342K_Y397Q (protein, UniProt Q6VAB4 1-458, looked up, variant T284L Q342K Y397Q)
# UDP-glycosyltransferase 76G1: B1 UDP-glycosyltransferase 76G1 with A224E, S266Q, T284L, E342K, Y397Q
# B14: UGT76G1var14: UGT76G1 variant, mutations A239I_F265I_V396F (protein, UniProt Q6VAB4 1-458, looked up, variant A239I F265I V396F)
# UDP-glycosyltransferase 76G1: B1 UDP-glycosyltransferase 76G1 with A224E, A239I, F265I, S266Q, E342Q, V396F
# B15: UGT76G1var26: UGT76G1 variant, mutations S241I_F265L_F377C (protein, UniProt Q6VAB4 1-458, looked up, variant S241I F265L F377C)
# UDP-glycosyltransferase 76G1: B1 UDP-glycosyltransferase 76G1 with A224E, S241I, F265L, S266Q, E342Q, F377C
# B16: UGT76G1var24: UGT76G1 variant, mutations A239I_P272A_Q425E (protein, UniProt Q6VAB4 1-458, looked up, variant A239I P272A Q425E)
# UDP-glycosyltransferase 76G1: B1 UDP-glycosyltransferase 76G1 with A224E, A239I, S266Q, P272A, E342Q, Q425E
# B17: UGT76G1var23: UGT76G1 variant, mutations T263S_G348P_A352G (protein, UniProt Q6VAB4 1-458, looked up, variant T263S G348P A352G)
# UDP-glycosyltransferase 76G1: B1 UDP-glycosyltransferase 76G1 with A224E, T263S, S266Q, E342Q, G348P, A352G
# B18: UGT76G1var18: UGT76G1 variant, mutations L243P_S274G_N409R (protein, UniProt Q6VAB4 1-458, looked up, variant L243P S274G N409R)
# UDP-glycosyltransferase 76G1: B1 UDP-glycosyltransferase 76G1 with A224E, L243P, S266Q, S274G, E342Q, N409R
# B19: UGT76G1var17: UGT76G1 variant, mutations F265L_Q266E_Q342K (protein, UniProt Q6VAB4 1-458, looked up, variant F265L Q266E Q342K)
# UDP-glycosyltransferase 76G1: B1 UDP-glycosyltransferase 76G1 with A224E, F265L, S266E, E342K
# B20: UGT76G1var31: UGT76G1 variant, mutations E224D_L243P_V300A (protein, UniProt Q6VAB4 1-458, looked up, variant E224D L243P V300A)
# UDP-glycosyltransferase 76G1: B1 UDP-glycosyltransferase 76G1 with A224D, L243P, S266Q, V300A, E342Q
# B21: UGT76G1var29: UGT76G1 variant, mutations F22Y_V279I_N409R (protein, UniProt Q6VAB4 1-458, looked up, variant F22Y V279I N409R)
# UDP-glycosyltransferase 76G1: B1 UDP-glycosyltransferase 76G1 with F22Y, A224E, S266Q, V279I, E342Q, N409R
# B22: UGT76G1var16: UGT76G1 variant, mutations F265I_P272A_I335V (protein, UniProt Q6VAB4 1-458, looked up, variant F265I P272A I335V)
# UDP-glycosyltransferase 76G1: B1 UDP-glycosyltransferase 76G1 with A224E, F265I, S266Q, P272A, I335V, E342Q
# B23: UGT76G1var20: UGT76G1 variant, mutations S375M_K393G_Y397E (protein, UniProt Q6VAB4 1-458, looked up, variant S375M K393G Y397E)
# UDP-glycosyltransferase 76G1: B1 UDP-glycosyltransferase 76G1 with A224E, S266Q, E342Q, S375M, K393G, Y397E
# B24: UGT76G1var19: UGT76G1 variant, mutations E224D_E229A_Q432E (protein, UniProt Q6VAB4 1-458, looked up, variant E224D E229A Q432E)
# UDP-glycosyltransferase 76G1: B1 UDP-glycosyltransferase 76G1 with A224D, E229A, S266Q, E342Q, Q432E
# B25: UGT76G1var11: UGT76G1 variant, mutations F22L_A33G_V310I (protein, UniProt Q6VAB4 1-458, looked up, variant F22L A33G V310I)
# UDP-glycosyltransferase 76G1: B1 UDP-glycosyltransferase 76G1 with F22L, A33G, A224E, S266Q, V310I, E342Q
# Assay: Directed evolution of UGT76G1, conversion of Rebaudioside D to Rebaudioside M (round 1)
# Type: biochemical
# Conditions: 0.5 mM Rebaudioside D, 2.5 mM UDP-Glucose, 100 μL fresh lysate, 30° C., pH 7.2
# From the text: Starting from the amino acid sequence of UGT76G1, as is described in Genbank (AAR06912.1), different mutations at various amino acid positions were identified that could alter the activity of the enzyme for the transformation of Rebaudioside D (Reb D) to Rebaudioside M (Reb M). This list of mutations, designed by DNA2.0 ProteinGPS™ strategy, was subsequently used to synthesize 96 variant genes that contained 3, 4 or 5 of these mutations that were codon-optimized for expression in E. coli. The genes were subcloned in the pET30a+ plasmid and used for transformation of E. coli BL21 (DE3) chemically competent cells. The obtained cells were grown in Petri-dishes on solid LB medium in the presence of Kanamycin. Suitable colonies were selected and allowed to grow in liquid LB medium in tubes. Glycerol was added to the suspension as cryoprotectant and 400 μL aliquots were stored at −20° C. and at −80° C.
# These storage aliquots of E. coli BL21(DE3) containing the pET30a+_UGT76G1var plasmids were thawed and added to LBGKP medium (20 g/L Luria Broth Lennox; 50 mM PIPES buffer pH 7.00; 50 mM Phosphate buffer pH 7.00; 2.5 g/L glucose and 50 mg/L of Kanamycine). This culture was allowed to shake in a 96 microtiter plate at 135 rpm at 30° C. for 8 h.
# 3.95 mL of production medium containing 60 g/L of Overnight Express™ Instant TB medium (Novagen®), 10 g/L of glycerol and 50 mg/L of Kanamycin was inoculated with 50 μL of above described culture. In a 48 deepwell plate the resulting culture was allowed to stir at 20° C. The cultures gave significant growth and a good OD (600 nm; 1 cm) was obtained. After 44 h, the cells were harvested by centrifugation and frozen.
# Lysis was performed by addition of Bugbuster® Master mix (Novagen®) to the thawed cells and the lysate was recovered by centrifugation. Activity tests were performed with 100 μL of fresh lysate that was added to a solution of Rebaudioside D (final concentration 0.5 mM), MgCl2 (final concentration 3 mM) and UDP-Glucose (final concentration 2.5 mM) in 50 mM phosphate buffer pH 7.2.
# The reaction was allowed to run at 30° C. and samples were taken after 2, 4, 7 and 24 h. to determine conversion and initial rate by HPLC (CAD detection) using the analytical method that was described above for the transformation of Rebaudioside D to Rebaudioside M. The results are depicted in the following table.
Molecule,Conversion Reb D to Reb M after 24 h (%),initial rate (Reb M area/min)
B1,0.5%,2.3E+04 Reb M area/min
B2,29.0%,1.5E+07 Reb M area/min
B3,6.1%,2.4E+06 Reb M area/min
B4,0.5%,8.7E+04 Reb M area/min
B5,52.0%,4.9E+07 Reb M area/min
B6,0.3%,−7.7E+02 Reb M area/min
B7,41.9%,3.3E+07 Reb M area/min
B8,0.2%,−3.3E+04 Reb M area/min
B9,5.6%,1.5E+06 Reb M area/min
B10,13.6%,5.6E+06 Reb M area/min
B11,0.0%,−4.4E+04 Reb M area/min
B12,34.4%,2.4E+07 Reb M area/min
B13,0.9%,6.3E+04 Reb M area/min
B14,5.3%,1.5E+06 Reb M area/min
B15,1.8%,7.5E+05 Reb M area/min
B16,31.0%,2.1E+07 Reb M area/min
B17,47.8%,4.1E+07 Reb M area/min
B18,1.9%,5.0E+05 Reb M area/min
B19,0.7%,7.2E+05 Reb M area/min
B20,0.4%,2.4E+05 Reb M area/min
B21,41.0%,2.9E+07 Reb M area/min
B22,18.6%,5.8E+06 Reb M area/min
B23,1.8%,1.9E+06 Reb M area/min
B24,10.5%,5.5E+06 Reb M area/min
B25,0.4%,3.8E+04 Reb M area/min
